Experimental findings from US20220332800A1 are described below.

Experiment [1] addresses ZIKV-VLP (Native Antigen Inc.) (Zika virus). The experiment in a line: BLI binning on ZIKV-VLP; 1st mAb: 4G2.
The target is the same in experiment [2]. The experiment is described as follows: BLI binning on ZIKV-VLP; 1st mAb: 289-3.
Experiment [3] shares this target. The experiment is described as follows: BLI binning on ZIKV-VLP; 1st mAb: 329-2.
Experiment [4] has the same target. The experiment in a line: BLI binning on ZIKV-VLP; 1st mAb: Ab1.
The target is the same in experiment [5]. The experiment is described as follows: BLI binning on ZIKV-VLP; 1st mAb: 102-1.
Experiment [6] shares this target. The experiment is described as follows: BLI binning on ZIKV-VLP; 1st mAb: 78-2.
Experiment [7] shares this target. The experiment in a line: BLI binning on ZIKV-VLP; 1st mAb: Ab2.
The target in experiment [8] is purified inactivated Zika virus (PIZV) (Zika virus). The experiment is described as follows: indirect ELISA, purified antibody serially diluted from 10 µg/ml.
The target in experiment [9] is ZIKV-VLP (Native Antigen Inc.) (Zika virus). The description is as above.
Experiment [10] shares this target. The experiment in a line: BLI binning on ZIKV-VLP; 1st mAb: 242-3.
Experiment [11] has the same target. The experiment in a line: BLI binning on ZIKV-VLP; 1st mAb: 260-2.
Experiment [12] shares this target. The experiment in a line: BLI binning on ZIKV-VLP; 1st mAb: 181-4.
Experiment [13] shares this target. The experiment is described as follows: BLI binning on ZIKV-VLP; 1st mAb: C10.
The target is the same in experiment [14]. The experiment is described as follows: BLI binning on ZIKV-VLP; 1st mAb: 11-3.
The target is the same in experiment [15]. The experiment is described as follows: BLI binning on ZIKV-VLP; 1st mAb: 306-2.
The target is the same in experiment [16]. The experiment is described as follows: BLI binning on ZIKV-VLP; 1st mAb: 270-12.
The target is the same in experiment [17]. The experiment is described as follows: BLI binning on ZIKV-VLP; 1st mAb (row): 306-2.
Experiment [18] shares this target. The experiment is described as follows: BLI binning on ZIKV-VLP; 1st mAb (row): 289-3.
Experiment [19] shares this target. The experiment in a line: BLI binning on ZIKV-VLP; 1st mAb (row): 270-12.
For experiment [20] the target is unchanged. The experiment is described as follows: BLI binning on ZIKV-VLP; 1st mAb (row): 102-1.
The target is the same in experiment [21]. The experiment in a line: BLI binning on ZIKV-VLP; 1st mAb (row): C10.
Experiment [22] concerns the target Zika PRVABC59 live virus (Zika virus). The experiment is described as follows: cell-based or functional assay.
The target of experiment [23] is ZIKV-VLP (Native Antigen Inc.) (Zika virus). The experiment in a line: BLI binning on ZIKV-VLP; 1st mAb (row): 242-3.

For the substance “4G2 (commercially-available anti-dengue antibody)”, the response of 2nd mAb in [1] turned out to be 0.62; in experiment [2], 0.51; in experiment [3], 0.51; in experiment [4], 0.52; in experiment [5], 0.46; in experiment [6], 0.17. The response of 2nd mAb in experiment [7] was -0.08; in [10], 0.52; in experiment [11], 0.54; in experiment [12], 0.5; in [13], 0.54; in experiment [14], 0.52. The response of 2nd mAb in experiment [15] and in experiment [16] was 0.43 throughout. Also, the EC50 in [8] was 0.0182 µg/mL. For the same substance, in [9], the EC50 (half-maximal binding concentration) was 0.33 µg/mL.

Consider “C10 (commercially-available anti-dengue antibody)”, for which the response of 2nd mAb in experiment [17] was 0.0209; in [1] it was 0.24; in [2], 0.63; in experiment [18], -0.0388; in experiment [3], 0.57; in experiment [4] it was 0.66. The response of 2nd mAb in experiment [5] is 0.68; in experiment [6] it was 0.56; in experiment [7] it was 0.05; in [19], -0.0081; in experiment [10], 0.59; in experiment [11], 0.61. Also, the response of 2nd mAb is -0.0138 in experiment [20]; -0.0123 in experiment [21]; 0.55 in [12]; 0.17 in [13]; 0.63 in [14]; 0.62 in experiment [15]. Besides, the response of 2nd mAb is 0.58 in [16] and -0.0078 in experiment [23]. In addition, the EC50 (half-maximal binding concentration) is 0.0268 µg/mL in experiment [8] and 0.162 µg/mL in experiment [9]. For the same substance, the MNT IC50 (ng/mL) of Purified antibody in [22] amounted to 306 ng/mL.
